# T1: H. pylori MurC (Helicobacter pylori, UniProt Q9ZLL2)
# T1 sequence (Q9ZLL2 1-449): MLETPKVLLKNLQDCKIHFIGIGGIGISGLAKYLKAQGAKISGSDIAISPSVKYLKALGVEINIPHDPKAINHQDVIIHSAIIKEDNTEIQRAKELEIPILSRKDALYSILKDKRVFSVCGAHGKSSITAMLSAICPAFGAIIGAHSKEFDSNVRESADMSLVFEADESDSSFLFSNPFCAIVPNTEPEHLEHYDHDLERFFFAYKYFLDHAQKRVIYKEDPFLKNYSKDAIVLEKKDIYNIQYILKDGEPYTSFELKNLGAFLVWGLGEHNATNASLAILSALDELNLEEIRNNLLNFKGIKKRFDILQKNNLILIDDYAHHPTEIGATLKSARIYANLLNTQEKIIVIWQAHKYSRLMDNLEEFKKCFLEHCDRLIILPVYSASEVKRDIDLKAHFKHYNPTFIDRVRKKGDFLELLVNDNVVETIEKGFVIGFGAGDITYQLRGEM
# T2: H. pylori glutamate racemase (murI gene product) (Helicobacter pylori, UniProt Q9ZLT0)
# T2 construct: made in house; host or cells: E. coli BL21(DE3) carrying pET-23-murI and pACYC-groE (GroES/GroEL co-expressed)
# T2 sequence (Q9ZLT0 1-255): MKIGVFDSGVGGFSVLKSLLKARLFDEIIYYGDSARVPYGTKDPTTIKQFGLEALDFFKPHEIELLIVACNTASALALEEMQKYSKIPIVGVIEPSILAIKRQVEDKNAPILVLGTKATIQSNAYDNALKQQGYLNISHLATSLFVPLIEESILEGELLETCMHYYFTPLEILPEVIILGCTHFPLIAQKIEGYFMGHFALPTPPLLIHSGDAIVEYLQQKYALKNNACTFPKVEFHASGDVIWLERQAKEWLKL
# Experiments:
# H. pylori MurC = target: T1, H. pylori MurC; test: MurC continuous assay, ADP formation coupled to pyruvate kinase/lactate dehydrogenase; assay type: biochemical; details: 500 μM UDP-N-acetylmuramate, 1 mM L-alanine, 1 mM ATP, 0.0018 mg/ml MurC, 37° C.
# Method: Purified H. pylori MurC was assayed using a continuous assay by coupling ADP formation with NADH oxidation by the pyruvate kinase/lactate dehydrogenase enzyme couple. Assay conditions were as follows: 100 mM Tris·HCl pH 8.0, 2.5 mM 2-mercaptoethanol, 20 mM KCl, 10 mM DTT, 2 mM MgCl2, 10 mM PEP, 0.15 mM NADH, 3.5 units of pyruvate kinase, 5.5 units of lactate dehydrogenase (Sigma), 500 μM UDP-N-acetylmuramate, 1 mM L-alanine, 1 mM ATP and 0.0018 mg/ml MurC at 37° C. […] Previously boiled enzyme could not support ADP formation. Steady state analysis of the dependence of reaction velocity on substrate concentration was done by varying the concentration of a single substrate in concentrations ranging from 0.5 to 5 times Km while holding the other two substrates constant at 5 times Km concentrations.
# H. pylori Asd = H. pylori Asd (Helicobacter pylori, UniProt Q9ZK28); test: Asd assay, reverse reaction, NADPH formation
# Method: The enzymatic activity of purified His-tagged H. pylori Asd (SEQ ID NO: 6545) was characterized by assaying the reverse reaction of phosphorylation of L-aspartate-β-semialdehyde (ASA) to L-p-aspartyl phosphate, with concomitant reduction of NADP^+ to NADPH. The formation of NADPH was detected by its absorbance, 340 nm, or by its fluorescence, excitation =340 nm, emission 455 nm.
# ASA in 4 N HCl was prepared daily for use in Asd assays by partial neutralization with addition of 1.0 equivalent of […], with a resulting pH=1-2. The amount of ASA was determined enzymatically by complete reaction in the presence of excess NADP^+and phosphate. […] Assays were performed in the following buffer: 200 mM HEPES, 0.3 mM NADP^+, 30 mM NaH2PO4, 1.0 mM DTT, pH 7.5 or pH 8.0. ASA was used in the assay at concentrations of 5-165 μM by diluting the partially-neutralized ASA stock into the assay 10-200 fold, leading to a decrease in pH of 0.1 units or less. Reaction was initiated with the addition of enzyme to a final concentration of 3.5-70 nM.
# [1] = target: T2, H. pylori glutamate racemase (murI gene product); test: Glutamate racemase activity, conversion of D-glutamate to L-glutamate (two enzyme and single enzyme coupled assays); assay type: biochemical; details: purified recombinant enzyme
# Method: The activity of glutamate racemase, interconversion of the enantiomers of glutamic acid, was measured using D-glutamic acid as substrate. The method of Gallo and Knowles (Gallo, K. A. and Knowles, J. R., 1993, Biochmistry 32, 3981-3990) that was used to measure the glutamate racemase activity of Lactobacillus fermenti was adapted for the measurement of glutamate racemase activity of the H. pylori murI gene product isolated as a recombinant protein from E. coli. […] Initial rates were determined by following the increase in absorbance at 500 nm in a reaction volume of 200 μl containing 50 mM Tris-HCl, pH 7.8, 4% v/v glycerol, 10 mM NAD, 2 mM INT, 60 Units/ml L-glutamate dehydrogenase, 5 Units/ml diaphorase, and varying concentrations of either substrate (from 0.063 mM to 250 mM D-glutamic acid) or purified enzyme (from 1 μg to 50 μg). After a preincubation of all reagents except either the substrate (D-glutamic acid) or the enzyme (murI gene product) for a period of 5 minutes, reactions were initiated by adding the missing ingredient (i.e., the enzyme or the subtrate, as required), and the increase in optical density at 500 nm was measured in a Microplate Spectophotometer System (Molecular Devices, Spectra MAX 250). Measurements were followed for 20 minutes, and initial velocities were derived by calculating the maximum slope for the absorbance increases. […]
molecule,measurement,setting,value
"H. pylori MurC: His-tagged H. pylori MurC (SEQ ID NO: 7607) purified from E. coli (protein, listed as Helicobacter pylori, His tag; misc_feature (B) LOCATION 1...449; hypothetical: YES) MLETPKVLLKNLQDCKIHFIGIGGIGISGLAKYLKAQGAKISGSDIAISPSVKYLKALGVEINIPHDPKAINHQDVIIHSAIIKEDNTEIQRAKELEIPILSRKDALYSILKDKRVFSVCGAHGKSSITAMLSAICPAFGAIIGAHSKEFDSNVRESADMSLVFEADESDSSFLFSNPFCAIVPNTEPEHLEHYDHDLERFFFAYKYFLDHAQKRVIYKEDPFLKNYSKDAIVLEKKDIYNIQYILKDGEPYTSFELKNLGAFLVWGLGEHNATNASLAILSALDELNLEEIRNNLLNFKGIKKRFDILQKNDLILIDDYAHHPTEIGTTLKSARIYANLLNTQEKIIVIWQAHKYSRLMDNLEEFKKCFLEHCDRLIILPVYSASEVKRDIDLKAHFKHYNPTFIDRVRKKGDFLELLVNDNVVETIEKGFVIGFGAGDITYQLRGEM",specific activity,H. pylori MurC,5900 nmol/min/mg
"H. pylori Asd: purified His-tagged H. pylori Asd (SEQ ID NO: 6545) (protein, listed as Helicobacter pylori, His tag; misc_feature (B) LOCATION 1...346; hypothetical: YES) MKTYNVAIVGASGAVGQELIKGLENSFFPIKKFVPLASARSAGKKIRAFNKDYEILETTHEVFEKEEIDIAFFSAGGSVSEEFAISASKTALVIDNTSFFRLNKDVPLVVPEINAQEIFNAPLNIIANPNCSTIQMTQILNPLHLHFKIKSVIVSTYQAVSGAGNKGIESLKNELKTALEHLEKDPAIDLNQVLQAGAFAYPIAFNAIAHIDTFKENGYTKEELKMVHETHKIMGVDFPISATCVRVPVLRSHSESLSIAFEKEFDLKEVYEVLKNAPSVVVCDDPSHNLYPTPLKASHTDSVFIGRLRKDLFDKKTLHGFCVADQLRVGAATNALKIALHYIKNA",decrease of kcat relative to the E. coli enzyme,H. pylori Asd,about 5 fold
same,effect of ionic strength on activity,H. pylori Asd; ionic strength as high as 0.7 M,unaffected
same,kcat,H. pylori Asd; pH 8.0,5.4 s⁻¹
"H. pylori glutamate racemase: purified recombinant H. pylori glutamate racemase (SEQ ID NO: 7635) (protein, listed as Helicobacter pylori, misc_feature (B) LOCATION 1...255; hypothetical: YES) MKIGVFDSGVGGFSVLKSLLKARLFDEIIYYGDSARVPYGTKDPTTIKQFGLEALDFFKPHEIELLIVACNTASALALEEMQKYSKIPIVGVIEPSILAIKRQVEDKNAPILVLGTKATIQSNAYDNALKQQGYLNISHLATSLFVPLIEESILEGELLETCMHYYFTPLEILPEVIILGCTHFPLIAQKIEGYFMGHFALPTPPLLIHSGDAIVEYLQQKYALKNNACTFPKVEFHASGDVIWLERQAKEWLKL",kcat,[1],0.143 s⁻¹
same,Vmax,[1]; D-glutamate substrate,~300 nmoles/min/mg protein

# Reference: patent US20040052799A1, “Nucleic acid and amino acid sequences relating to Helicobacter pylori for diagnostics and therapeutics” (Astra Aktiebolag, priority 1996, published 2004)
